Measurements taken from the RNAGym collection of RNA variant scans (doi:10.1073/pnas.2313332121).

B1: TPR t1 (parent)
chain: GACCAAUCUGCCCUCAGAGCUCGAGAACAUCUUCGGAUGCAGAGGAGGCAGGCUUCGGUGGCGCGAUAGCGCCAACGUCCUCAACCUCCAAUGCAUCCCACCACAUGAUGAUGCCUGAAGAGCCUUGGUUUUUUG

Variants of: B1
Assay: polymerase ribozyme fitness, log enrichment relative to wild type (log ratio); higher = more active; in vitro selection for triplet polymerase activity
In short: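 Fitness measures genotype enrichment against wild-type enrichment on a logarithmic scale, with inverse-variance-weighted averaging of replicates. The logarithm is base 2, and genotypes were kept only with ≥10 input reads and ≥1 read per output in Illumina sequencing. The sequenced libraries came from one triplicate in vitro selection round, including frozen incubation at −7 °C, of PCR-built, transcribed mutant libraries of each subunit of a heterodimeric triplet polymerase ribozyme.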
In the case of GACCAAUCUGCCCUCACAGCUCGAGAACAUCUUCGGAUGCAGAGGAGGCAGGCUUCGGUGGCGCGAUAGCGCCAACGUCCUCAACCUCCCAUGCAUCCCACCACAUGAUGAUGCCUGAAGCGCCUUGGUUUUUUG [G17C A90C A121C], the “polymerase ribozyme fitness (log ratio)” value is reported as -1.46.
In the case of GACCAAUCUGCCCUCACAGCUCGAGAACAUCUUUGGAUGCAUAGGAGGCAGGCUUCGGUGGCGCGAUAGAGCCAACGUCCUCAACCUCCAAUGCAUCCCACCACAUGAUGAUGCCUGAAGAGACUUGGUUUUUUG [G17C C34U G42U C70A C123A], the “polymerase ribozyme fitness (log ratio)” value is reported as -6.07.
For GACCAAUCUGCCCUCACAGCUCGAGAACAUCUUCGGAUGCAGAGGAGGGAGGCUUCGGUGGAGCGAUAGCGCCAACGUCCUCAACCUCCAAUGCAUCCCACCACAUGAUGAUGCCUGAAGAGCCUUGGUUUUUUG [G17C C49G C62A], the “polymerase ribozyme fitness (log ratio)” value was -7.71.
For GACCAAUCUGCCCUCACAGCUCGAGAACAUCUUCGGAUGCAGAGGAGGCAGGCUUUGGUGGCGCGAUAGCGCCAACGUCCUCAACCUCCAAUGCAUCCCACCACAUGAUGAUGCCUGAAGAGCCUUGGUUUUUUG [G17C C56U], the “polymerase ribozyme fitness (log ratio)” value was -3.79.
For GACCAAUCUGCCCUCACAGCUCGAGAACAUCUUCGGAUGCAGAGGAGGCAGGCUUCGGUGGCGCGAUAGCGCUAACGUCCUCAACCUCCAAUGCAUCCCACCACAUGAUGAUGCCUGAAGAGCCUUGGUUUUUUG [G17C C73U], the “polymerase ribozyme fitness (log ratio)” value was -4.07.
In the case of GACCAAUCUGCCCUCACAGCUCGAGAACAUCUUCGGAUGCAGAGGAGGCAGGCUUCGGUGGCGCGAUAGCGCCAACGUCUUCUACCUCCAAUGCAUCCCACCACAUGAUGAUGCGUGAAGAGCCUUGGUUUUUUG [G17C C80U A83U C115G], the “polymerase ribozyme fitness (log ratio)” value is reported as -2.85.
For GACCAAUCUGCCCUCACAGCUCGAGAACAUCUUCGGAUGCAGAGGAGGCAGGCUUCGGUGGCGCGAUAGCGCCAACGUCCUCAACCUCCAAUGCAUCUCACAACAUGAUGGUGCCUGAAGGACCUUGGUUUUUUG [G17C C98U C102A A111G A121G G122A], the “polymerase ribozyme fitness (log ratio)” value was -6.68.
In the case of GACCAAUCUGCCCUCACAGCUCGAUAACAUCUUUGGAUGCAGAGGAGGCAGGCUUCGGUGGCGCGAUAUCGCCAACGUCCUCAACCUCCAAUGCAUCCCACCACAUGAUGAGGCCUGAAGAGCCUUGGUUUUUUG [G17C G25U C34U G69U U112G], the “polymerase ribozyme fitness (log ratio)” value is reported as -7.59.
For GACCAAUCUGCCCUCACAGCUCGAGAACAUCUUCGGAUGCAGAGGAGACAGGCUUCGGUGGCGCGAUAGCGCCAACGUCUUCCACCUCCAAUGCGUCCCACCACAUGAUGAUGCCUGAAGAGGCUUGGUUUUUUG [G17C G48A C80U A83C A95G C123G], the “polymerase ribozyme fitness (log ratio)” value was -6.14.
With GACCAAUCUGCCCUCACAGCACGAGAACAUCUUCGGAUACAGAGGAGGCAGGCUUCGGUGGCGCGAUAGCGCCAACGUCCUCAACCUCCAAUGCAUCCCACCACAUGAUGACGCAUGAAGAGCCUUGGUUUUUUG [G17C U21A G39A U112C C115A] the “polymerase ribozyme fitness (log ratio)” value was -1.1.
For GACCAAUCUGCCCUCACAGCUCGAGAACAUCUUCGGAUGCAGAGGAGGCAGGCGUCGGUGGCGCGAUAGCGCCAACGUCCUCAACCUCCAAUGAAUCCCACCACAUGAUGAGGCCUGAAGAGCCUUGGUUUUUUG [G17C U54G C94A U112G], the “polymerase ribozyme fitness (log ratio)” value was -6.12.
With GACCAAUCUGCCCUCACAGCUCGAGAACAUCUUCGGAUGCAGAGGAGGCAGGCGUCGGUGGCGCGAUAGCGCCAACGUCCUCAACCUCCAAUGCAUCCCACCACAUGAUGAUGCCUGAAGAGCUUUGGUUUUUUG [G17C U54G C124U] the “polymerase ribozyme fitness (log ratio)” value was -2.64.
In the case of GACCAAUCUGCCCUCACAGCUCGAGAACAUCUUCGGAUGCAGAGGAGGCAGGCUUCGGUGGCGCGAUAGCGCCAACGUCCUCAACCUCCAAUGCAUCCCACCACAGGAUGAUGCGUGAAGAGCCUUGGUUUUUUG [G17C U106G C115G], the “polymerase ribozyme fitness (log ratio)” value is reported as 0.318.
With GACCAAUCUGCCCUCAUCGCUCGAGAACAUCUUCGGAUGCAGAGGAGGCAGGGUUCGGUGGCGCGAUAGCGCCAACGUCCUCAACCUCCAAUGCAUCCCACCACAUGAUGAUGCCUGAAGAGCCUUGGUUUUUUG [G17U A18C C53G] the “polymerase ribozyme fitness (log ratio)” value was -3.98.
For GACCAAUCUGCCCUCAUCGCUCGAGAACAUCUUCGGAUGCAGAGGAGGCAGGCUUCCGUGGCGCGAUAGCGCCAACGUCCUCAACCUCCAAUGCAUCCCACCACAUGAUGAUGCCUGAAGAGCCUUGGUUUUUUG [G17U A18C G57C], the “polymerase ribozyme fitness (log ratio)” value was -2.66.
With GACCAAUCUGCCCUCAUAGCUCGGGAACAUCCUCGGAUGCAGAGGAGGCAGGCUUCGGUGCCGCGAUAGCGCCAACGUCCUCAACCUCCAAUGCAUCCCACCACAUGAUGAUGCCUCAAGAGCCUUGGUUUUUUG [G17U A24G U32C G61C G117C] the “polymerase ribozyme fitness (log ratio)” value was -6.76.
In the case of GACCAAUCUGCCCUCAUAGCUCGAGAUCAUCUUCGGAUGAAGAGGAGGCAGGCUUCGGUGGCGAGAUAGCGCCAACGUCCUCAAACUCCAAUGCAUCCCACCACAUGAUGAUGCCUCAAGAGCCUUAGAUUUUUG [G17U A27U C40A C64A C85A G117C G127A U129A], the “polymerase ribozyme fitness (log ratio)” value is reported as -6.49.
With GACCAAUCUGCCCUCAUAGCUCGAGAUCAUCUUCGGAUGCAAUGGAGGCAGGCUUCGGUGGCGCGAUAGCGCCAACGUCCUCAAUCUCCAAUGCAUCCCACCACAUGAUGAUGCCUGAAGAGCAUUGGUUUUAUG [G17U A27U G42A A43U C85U C124A U133A] the “polymerase ribozyme fitness (log ratio)” value was -5.61.
For GACCAAUCUGCCCUCAUAGCUCGAGAACUUCUUCGGAUGCAGAGGAGGCAGGCUUCGGUGGCGCGAUAGCGUCAACGUCCUCAACCUCCAAUGCAUCCCACCACAUGAUGAUGCCUGAAGAGCCUUGGUUUUUUG [G17U A29U C72U], the “polymerase ribozyme fitness (log ratio)” value was -4.39.
In the case of GACCAAUCUGCCCUCAUAGCUCGAGAACAUCUUCGGAUGCAGGGGAGGCAGGCUUCUGUGGCGCGAUAGCGCCAACGUCCUCAACCUCCAAUGCAUCCCACCACAUGAUGAUGCCUGAAGAGCCUUGGUUUUUUG [G17U A43G G57U], the “polymerase ribozyme fitness (log ratio)” value is reported as -4.19.
In the case of GACCAAUCUGCCCUCAUAGCUCGAGAACAUCUUCGGAUGCAGAGGCGGCAGGCUUCGGUGGUGCGAUAGCGCCAACGUCCUCAACCUCCAAUGCAUCCCACCACAUGAUGAAGCAUGAAGAGCCUUGGUUUGUAG [G17U A46C C62U U112A C115A U132G U134A], the “polymerase ribozyme fitness (log ratio)” value is reported as 0.56.
